Here are results for 1 substance from patent publication US20260274968A1.

For test [1], the target named is human IL-18 receptor complex (IL-18Rα/β) (human) (UniProt Q13478).
The target in test [2] is human recombinant IL-18-BP (human) (UniProt O95998).
For test [3] the target is unchanged. Briefly: cell-based or functional assay.

Where only a bound is given, the exact number is not on record here.

recombinant human mature IL-18, sequence (Q14116 37-193): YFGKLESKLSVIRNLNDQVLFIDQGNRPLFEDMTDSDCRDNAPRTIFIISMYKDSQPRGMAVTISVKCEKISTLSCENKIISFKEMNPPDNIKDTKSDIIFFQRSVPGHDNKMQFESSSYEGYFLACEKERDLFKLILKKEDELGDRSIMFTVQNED
human recombinant IL-18-BP (human), sequence (O95998 31-194 limits assumed): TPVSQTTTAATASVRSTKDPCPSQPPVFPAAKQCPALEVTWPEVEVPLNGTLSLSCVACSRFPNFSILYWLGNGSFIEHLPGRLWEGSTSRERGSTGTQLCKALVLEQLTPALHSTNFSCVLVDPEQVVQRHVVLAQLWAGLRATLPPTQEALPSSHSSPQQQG
human IL-18 receptor complex (IL-18Rα/β) (human), sequence (Q13478 19-541, chain 1 of 2): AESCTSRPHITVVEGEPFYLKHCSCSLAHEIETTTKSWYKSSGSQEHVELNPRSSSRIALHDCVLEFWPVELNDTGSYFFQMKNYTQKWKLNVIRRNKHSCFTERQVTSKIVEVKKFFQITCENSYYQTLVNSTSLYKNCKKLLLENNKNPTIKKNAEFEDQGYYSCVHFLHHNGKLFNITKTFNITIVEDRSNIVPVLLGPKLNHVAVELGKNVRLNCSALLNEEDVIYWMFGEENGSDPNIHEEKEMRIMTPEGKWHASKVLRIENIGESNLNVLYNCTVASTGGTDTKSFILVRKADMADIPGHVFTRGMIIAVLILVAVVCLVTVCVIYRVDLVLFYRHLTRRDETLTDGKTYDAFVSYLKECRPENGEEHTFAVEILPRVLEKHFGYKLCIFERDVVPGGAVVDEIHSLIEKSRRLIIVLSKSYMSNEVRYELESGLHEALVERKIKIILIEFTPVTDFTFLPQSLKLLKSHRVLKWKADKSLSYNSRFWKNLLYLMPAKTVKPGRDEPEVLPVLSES
human IL-18 receptor complex (IL-18Rα/β) (human), sequence (O95256 20-599, chain 2 of 2, further chain): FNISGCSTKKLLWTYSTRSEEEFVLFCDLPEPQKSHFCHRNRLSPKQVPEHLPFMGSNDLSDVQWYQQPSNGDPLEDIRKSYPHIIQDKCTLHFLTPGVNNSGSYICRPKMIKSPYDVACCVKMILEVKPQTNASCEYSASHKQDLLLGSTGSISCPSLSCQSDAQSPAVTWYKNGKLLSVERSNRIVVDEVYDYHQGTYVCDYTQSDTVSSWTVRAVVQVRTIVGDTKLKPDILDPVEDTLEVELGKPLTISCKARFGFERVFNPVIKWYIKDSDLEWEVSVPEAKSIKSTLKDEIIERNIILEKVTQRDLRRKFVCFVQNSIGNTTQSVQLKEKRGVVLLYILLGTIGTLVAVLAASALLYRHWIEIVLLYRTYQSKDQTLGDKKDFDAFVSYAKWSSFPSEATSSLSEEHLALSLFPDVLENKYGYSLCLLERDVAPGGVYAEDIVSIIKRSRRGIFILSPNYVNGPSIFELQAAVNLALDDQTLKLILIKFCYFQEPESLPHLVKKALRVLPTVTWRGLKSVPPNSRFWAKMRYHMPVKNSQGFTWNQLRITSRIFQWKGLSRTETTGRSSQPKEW

Substance “recombinant human mature IL-18 (from UniProt Q14116 37-193) (ligand)” showed an EC50-SEAP, HEK-Blue IL-18 reporter cells, rhIL-18 titrated in medium alone (row 'Human rIL-18') in test [1] of 0.0317 ng/mL. Moreover, in test [2], the EC50-SEAP, HEK-Blue IL-18 reporter cells, rhIL-18 titrated in medium with 1.25 µg/ml rhIL-18BP (row 'Human rIL-18 + BP') was over 1 ng/mL. Besides, the EC50-SEAP (HEK Blue IL-18), fold attenuation by 1.25 µg/ml hrIL-18-BP in test [3] was over 1000 fold.
